No end group written: not given here.
Experiment: Distribution of tritium-labelled pentapeptide after intranasal administration
Format: in vivo
Details: rats, tritium label
Description: The study to determine how the medication of the invention is distributed through the body and reaches the brain was conducted on rats. Specially prepared rats were intranasally administered the pharmaceutical composition containing the pentapeptide of the invention radioactively-labelled with tritium. The animals were then euthanized at certain time intervals to be able to assess the biodistribution of the peptide in the brain and its transportation path.

pentapeptide of the invention radioactively-labelled with tritium: pentapeptide Thr-Lys-Pro-Arg-Pro (SEQ ID NO: 5) labelled with tritium, given intranasally in a pharmaceutical composition (TKPRP; also: tritium label, position not given here)
biodistribution: delivery to the brain: a significant part of the medication reached the brain undegraded
biodistribution: site of detection: detected in the olfactory bulbs and other parts of the brain

Source: US20190269750A1, “PHARMACEUTICAL COMPOSITION AND METHOD OF TREATING FEMALE SEXUAL DYSFUNCTIONS” ("IVIX" Ltd., priority 2016, published 2019)
